From publication PMC2645338

Tests used:
[1] = molecular target: mitochondrial 28S small ribosomal subunit (bovine); assay: Microcon-100 centrifugation with dot blot immunodetection
[2] = molecular target: mitochondrial 28S small ribosomal subunit (bovine); assay: co-sedimentation
[3] = molecular target: C-terminal domain of IF3mt with the linker, His6-tagged (human); assay: SPR
[4] = molecular target: mitochondrial 28S small ribosomal subunit (bovine); assay: dot blot of epitope exposure

| Kd [1] | Substance | further results |
| --- | --- | --- |
| 60 nM | C-terminal domain of IF3mt with the linker, His6-tagged (domain or fragment) | – |
| 95 nM | C-terminal domain of IF3mt without the linker, His6-tagged (domain or fragment) | – |
| 240 nM | N-terminal domain of IF3mt with the linker, His6-tagged (domain or fragment) | Kd [2]: 277 nM |
| 390 nM | N-terminal domain of IF3mt without the linker, His6-tagged (domain or fragment) | – |
| – | mitochondrial 28S small ribosomal subunit (complex) | Kd [3]: 44 nM; koff [3]: 0.0092 s⁻¹; kon [3]: 210000 M⁻¹ s⁻¹ |
| – | mitochondrial initiation factor 3, mature full-length form, His-tagged (from UniProt Q9H2K0 32-278) (natural protein) | Kd [2]: 35 nM; quenching of the antigenic response on binding [4]: 80% |
| 70 nM | untagged C-domain of IF3mt with the linker (His-tag removed with TEV protease) (domain or fragment) | – |
| 40 nM | untagged IF3mt (mature full-length form, His-tag removed with TEV protease) (from UniProt Q9H2K0 32-278) (natural protein) | – |
| 232 nM | untagged N-domain of IF3mt with the linker (His-tag removed with TEV protease) (domain or fragment) | – |
